Substrate in the series: CC(C)(COP(=O)(O)OP(=O)(O)OC[C@H]1O[C@@H](n2cnc3c(N)ncnc32)[C@H](O)[C@@H]1OP(=O)(O)O)[C@@H](O)C(=O)NCCC(=O)NCCS
Put plainly: purified protein. The format is biochemical, Streptomyces platensis. As to conditions: saturating 6 (100 μM), Tris pH 7.8, 25 °C.

Positions count from the first letter of the chain named. Numbers in names are those of the source.

B1: PtmA2 (Streptomyces platensis; A497K) (protein)
chain: MQHTTIGDVLREHRRSHPGRTALVDGPVRLTWPELDDRVNRLAGSLAASGIGRGDRIMWLGQNSFRVYELIAAAGKLGAMVCVGYWRWAPPEMEFALRDFDPHLVVWQHQEIHETVARTREALGSDDTARWLRHDSAPQDPDGYEAFLAAGGLADPDLDIDPDSPVLVLYTAAMSGRQCGSLLSHTNLIAMATAAAWLGDIDHTTAFLNSGPMFHIGNHQFWGMPTLLMAGKNVIVRRVVAEEVRDLLVAEECTHAFLMPPTVAEIVRLNRDTGHDLSRLRATVAPHLWEGMATTDTSRFTRSGAAAGRGYGQTELSGFAVTAAYGGPAAGNAGRPGPGLTVRVLDTAGRECAVGEAGEICARGTVVHRGYWNRDEVNAHRFRSGWWHTTDLGRREPDGSLTFLGTTTRMLKSAAENIFPAEVENCIEQHPAVREAAVIGVPNTRWAQDVKAVVVLEPDAGVSEQEIIDHCRPRIASYKKPKSVAFAAALPRTVSGKRDYDALDKEYGGGGYPGAATLGPGR
Usually Km stands for the concentration of substrate that gives half-maximal velocity. By Vmax is commonly meant the top rate of the reaction or transport when substrate is in excess. One may read the kcat as the number of substrate molecules converted per active site and unit of time at saturation. Broadly, the kcat/Km is the turnover number divided by the Michaelis constant. Take B1: the Michaelis-Menten constant (Km) stood at 6.8 ± 1.0 µM, the Vmax turned out to be 4.74 µmol/min, the kcat was found to be 32 s⁻¹ and the kcat/Km stood at 4.7e+06 M⁻¹ s⁻¹.

B2: PtmA2 (Streptomyces platensis; E416A) (protein)
chain: B1 chain with E416A, K497A
Consider B2, for which the Michaelis-Menten constant (Km) turned out to be 7.8 ± 1.2 µM, the maximal velocity (Vmax) was 5.34 µmol/min, the turnover number (kcat) came to 0.18 s⁻¹ and the catalytic efficiency (kcat/Km) is 23000 M⁻¹ s⁻¹.

B3: PtmA2 (Streptomyces platensis; A172S/A173G/A497K/C179K/M174T/Q178P) (protein)
chain: B1 chain with A172S, A173G, M174T, Q178P, C179K
As to B3, under “A497K/P-loop mutant”, the Km was 69 ± 11 µM, the Vmax is 5.94 µmol/min, the kcat turned out to be 10 s⁻¹ and the specificity constant (kcat/Km) came out at 140000 M⁻¹ s⁻¹.

B4: PtmA2 (Streptomyces platensis; A172S/A173G/C179K/M174T/Q178P) (protein)
chain: B1 chain with A172S, A173G, M174T, Q178P, C179K, K497A
As for B4, under “P-loop mutant”, the Km amounted to 70 ± 8 µM, the Vmax was 8.88 µmol/min, the catalytic constant (kcat) is 7.4 s⁻¹ and the kcat/Km was 110000 M⁻¹ s⁻¹.

B5: PtmA2 (Streptomyces platensis) (protein)
chain: B1 chain with K497A
On to B5, for which the Km stood at 6.2 ± 0.6 µM, the maximal velocity (Vmax) came out at 5.82 µmol/min, the kcat turned out to be 20 s⁻¹ and the kcat/Km was found to be 3.2e+06 M⁻¹ s⁻¹.
